Here are results for three molecules from patent US20150329638A1 (Biogen, published 2015).

Substitutions are numbered along the chain they refer to. Names and notes keep the numbering of the source.

Assay [1] addresses T1, rat DR6 (rat, UniProt D3ZF92 42-655).
T1 construct: Full length rat DR6 expressed on transfected HEK293 cells
T1 sequence: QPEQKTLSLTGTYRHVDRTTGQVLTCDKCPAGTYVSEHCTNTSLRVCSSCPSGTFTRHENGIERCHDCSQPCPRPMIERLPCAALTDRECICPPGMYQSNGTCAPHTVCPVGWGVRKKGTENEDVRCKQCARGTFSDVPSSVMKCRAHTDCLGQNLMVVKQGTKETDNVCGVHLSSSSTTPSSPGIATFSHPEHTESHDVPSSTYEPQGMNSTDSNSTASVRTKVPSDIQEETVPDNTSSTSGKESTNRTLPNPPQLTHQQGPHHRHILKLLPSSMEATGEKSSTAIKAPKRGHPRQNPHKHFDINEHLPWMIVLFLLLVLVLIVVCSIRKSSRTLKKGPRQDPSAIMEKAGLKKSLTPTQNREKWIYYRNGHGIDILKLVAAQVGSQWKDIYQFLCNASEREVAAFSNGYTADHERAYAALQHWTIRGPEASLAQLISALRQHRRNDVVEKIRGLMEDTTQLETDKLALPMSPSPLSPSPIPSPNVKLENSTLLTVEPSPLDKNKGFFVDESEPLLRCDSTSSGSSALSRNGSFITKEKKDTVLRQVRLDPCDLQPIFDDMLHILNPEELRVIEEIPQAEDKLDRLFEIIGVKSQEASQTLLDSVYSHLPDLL
In words: FACS direct binding on transiently transfected HEK293 cells. As to the method: (§1) The apparent Kd of 5D10 and M53-E04 for rat and human DR6 was estimated using transiently transfected HEK293 cells in a FACS direct binding assay. Approximately 50,000 cells in 150 uL of PBS, 1% BSA, 0.1% NaN3 (FACS buffer) were analyzed. Cells were pelleted and resuspended in 150 uL of serial dilutions of the antibodies in FACS buffer. Samples were incubated for 1 hr on ice with occasional agitation and then washed 3 times. Bound antibodies were visualized with PE-labeled goat F(ab)2 anti-human or anti-mouse Fab specific antibody (Jackson Labs).
(§2) The binding affinities of 5D10 or M53-E04 to cyno monkey DR6 were similar to human DR6. A single point mutation (Y93A) was introduced to 5D10 based on the co-crystal structure of DR6-5D10 (FIG. 6).

The target of assay [2] is T2, human DR6 (Death Receptor-6, TNFRSF21) (human, UniProt O75509 42-655).
T2 sequence: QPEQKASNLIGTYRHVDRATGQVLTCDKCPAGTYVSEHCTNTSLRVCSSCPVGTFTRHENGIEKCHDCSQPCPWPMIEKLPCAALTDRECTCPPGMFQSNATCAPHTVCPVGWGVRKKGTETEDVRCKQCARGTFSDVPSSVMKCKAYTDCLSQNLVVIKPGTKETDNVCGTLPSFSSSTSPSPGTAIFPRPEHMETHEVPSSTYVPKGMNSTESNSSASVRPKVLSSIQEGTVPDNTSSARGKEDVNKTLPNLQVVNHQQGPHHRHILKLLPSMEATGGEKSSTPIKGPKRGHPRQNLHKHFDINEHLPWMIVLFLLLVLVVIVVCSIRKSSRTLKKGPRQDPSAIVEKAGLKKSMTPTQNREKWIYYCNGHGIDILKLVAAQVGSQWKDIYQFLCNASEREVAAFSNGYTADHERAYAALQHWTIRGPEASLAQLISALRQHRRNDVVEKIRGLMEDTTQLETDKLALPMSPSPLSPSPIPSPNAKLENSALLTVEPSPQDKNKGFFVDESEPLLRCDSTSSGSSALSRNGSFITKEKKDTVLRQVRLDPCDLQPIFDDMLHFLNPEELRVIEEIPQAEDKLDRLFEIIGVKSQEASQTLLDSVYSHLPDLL
The description is as above. As to the method:
as §1, §2

A further assay has as its target T3, mouse DR6 (mouse, UniProt Q9EPU5 42-655).
T3 sequence: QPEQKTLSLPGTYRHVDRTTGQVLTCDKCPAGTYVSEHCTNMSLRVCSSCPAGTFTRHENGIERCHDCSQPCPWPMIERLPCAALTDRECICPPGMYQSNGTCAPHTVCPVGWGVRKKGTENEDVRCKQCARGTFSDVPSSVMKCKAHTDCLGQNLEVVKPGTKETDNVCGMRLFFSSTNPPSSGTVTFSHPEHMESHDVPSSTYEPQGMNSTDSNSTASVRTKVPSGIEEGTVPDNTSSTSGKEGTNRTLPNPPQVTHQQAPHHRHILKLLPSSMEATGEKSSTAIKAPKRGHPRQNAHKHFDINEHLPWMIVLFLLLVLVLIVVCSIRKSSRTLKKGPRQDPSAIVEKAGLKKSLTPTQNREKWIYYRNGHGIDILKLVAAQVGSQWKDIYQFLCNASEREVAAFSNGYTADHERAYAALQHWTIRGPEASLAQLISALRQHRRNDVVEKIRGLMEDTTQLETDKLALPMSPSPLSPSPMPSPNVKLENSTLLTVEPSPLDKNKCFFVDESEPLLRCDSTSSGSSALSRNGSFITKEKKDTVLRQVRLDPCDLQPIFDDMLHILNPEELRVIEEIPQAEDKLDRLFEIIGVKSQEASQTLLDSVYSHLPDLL
In words: flow cytometry on HEK293 cells transfected with full length DR6. As to the method: Six million HEK293 cells were transfected with 10 ug of plasmid DNA, which encoded full length human, rat, or mouse DR6. Three days after transfection, approximately 50,000 cells in 200 μL of PBS, 1% BSA, 0.1% NaN3 (FACS buffer) were analyzed. Cells were pelleted and resuspended in 150 μL of serial dilutions of anti-DR6 antibodies in FACS buffer. Samples were incubated for 1 hour on ice with occasional agitation and then washed three times. Bound DR6 antibody was visualized with PE-labeled goat F(ab)₂ anti-human Fab (for Dyax Fabs) or anti-mouse IgG specific antibody (for monoclonal antibodies) (Jackson Labs). […] Although both antibodies bind to DR6, the EO4 antibody leads to cell death, whereas 5D10 promotes cell survival. FIG. 5B.

Assay [3] has as its target T2, human DR6 (Death Receptor-6, TNFRSF21). As to the kind of experiment: cell-based or functional assay.
In assay [4] the target is T1, rat DR6. As to the kind of experiment: binding to rat DR6 (FIG. 6).

B1: M53-E04 (Fab, V domains shown)
VH: EVQLLESGGGLVQPGGSLRLSCAASGFTFSNYEMSWVRQAPGKGLEWVSSIYSSGGETLYADSVKGRFTISRDNSKNTLYLQMNSLRAEDTAVYYCARDGAADYWGQGTLVTVSS
VL: QSELTQPPSASGTPGQWVTISCSGSTSNIGNNYVYWYQQLPGTAPKLLIYTNNQRPSGVPDRFSGSKSGTSASLAISGLRSEDEADYYCATWDDSLYAPVFGGGTKVTVL
notes: The format in the assay (Fab or full IgG) is therefore not certain; also called EO4 antibody; E04 mAb
Take B1: the half-maximal effective concentration (EC50) in the assay with rat DR6 [1] was 0.1 nM; in assay [2] it was 0.05 nM. Besides, the binding result with mouse DR6 is on record as “binds”.

B2: 1P5D10.2 (antibody, V domains shown)
VH: EVQLVESGGGLVKPGGSLKLSCAASGFTFSDYYMYWVRQTPEKRLEWVATISDGGLYTYYQDSVKGRFTISRDNAKNNLYLQMSSLKSEDTAMYYCAREDDYDGDFYTMDYWGQGTSVTVSS
VL: QIVLTQSPAIMSASPGEKVTITCSASSSVSYMHWFQQKPGTSPKLWIYSTSNLASGVPARFSGSGSGTSYSLTISRMEAEDAATYYCQQRSSYPLTFGAGTKLELK
notes: Murine monoclonal antibody from a hybridoma; also called DR6 antagonist monoclonal antibody 5D10; anti-DR6 antibody 5D10
Turning to B2, the EC50 was determined as 60 nM in the assay with rat DR6 [1] and 0.1 nM in assay [2]. In addition, the binding result in the assay with mouse DR6 is reported as “binds”. In assay [3], the “motor neuron survival following sodium arsenite treatment (cell number)” value was determined as 3 fold.

B3: 1P5D10.2(Y93A) (antibody, V domains shown)
VH: B2 VH
VL: B2 VL with Y93A
notes: Single point mutant (Y93A, light chain variable domain) of 5D10; also called 5D10Y93A
B3: in the assay with rat DR6 [4], the binding result is recorded as “binds”.
